Assay in all cases: cell-based or functional assay
The target in test [1] is T1, human GIP receptor (human) (UniProt P48546).
T1 sequence (looked up): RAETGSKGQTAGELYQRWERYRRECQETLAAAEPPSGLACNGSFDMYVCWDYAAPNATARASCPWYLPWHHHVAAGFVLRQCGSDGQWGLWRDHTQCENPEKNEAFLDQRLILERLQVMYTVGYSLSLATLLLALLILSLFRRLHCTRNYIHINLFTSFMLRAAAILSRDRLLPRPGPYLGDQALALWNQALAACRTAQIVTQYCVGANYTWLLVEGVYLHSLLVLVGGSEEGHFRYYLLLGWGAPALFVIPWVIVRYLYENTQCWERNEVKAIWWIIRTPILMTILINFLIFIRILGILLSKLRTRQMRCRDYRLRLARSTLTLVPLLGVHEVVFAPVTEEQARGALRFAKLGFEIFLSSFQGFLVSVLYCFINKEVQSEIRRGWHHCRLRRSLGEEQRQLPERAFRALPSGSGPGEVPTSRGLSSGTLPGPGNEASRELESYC

In another test the target is hGLP-1R (Homo sapiens, UniProt P43220).
In test [2] the target is human glucagon receptor (human) (UniProt P47871).
human glucagon receptor (human), sequence (P47871 26-477): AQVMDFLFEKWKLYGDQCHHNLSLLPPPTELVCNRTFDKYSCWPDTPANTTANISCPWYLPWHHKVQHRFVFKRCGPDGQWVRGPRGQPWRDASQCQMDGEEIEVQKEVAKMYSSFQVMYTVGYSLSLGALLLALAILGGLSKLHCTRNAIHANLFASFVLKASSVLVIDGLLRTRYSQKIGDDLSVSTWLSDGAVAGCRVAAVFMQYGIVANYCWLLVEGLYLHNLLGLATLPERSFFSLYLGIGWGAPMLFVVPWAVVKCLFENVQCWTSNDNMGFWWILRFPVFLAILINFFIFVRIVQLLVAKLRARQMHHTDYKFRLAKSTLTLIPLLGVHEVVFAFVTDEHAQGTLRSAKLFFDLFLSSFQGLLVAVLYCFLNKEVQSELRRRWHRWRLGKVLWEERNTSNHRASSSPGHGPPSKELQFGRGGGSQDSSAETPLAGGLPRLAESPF

hGLP-1R, sequence (P43220 24-463): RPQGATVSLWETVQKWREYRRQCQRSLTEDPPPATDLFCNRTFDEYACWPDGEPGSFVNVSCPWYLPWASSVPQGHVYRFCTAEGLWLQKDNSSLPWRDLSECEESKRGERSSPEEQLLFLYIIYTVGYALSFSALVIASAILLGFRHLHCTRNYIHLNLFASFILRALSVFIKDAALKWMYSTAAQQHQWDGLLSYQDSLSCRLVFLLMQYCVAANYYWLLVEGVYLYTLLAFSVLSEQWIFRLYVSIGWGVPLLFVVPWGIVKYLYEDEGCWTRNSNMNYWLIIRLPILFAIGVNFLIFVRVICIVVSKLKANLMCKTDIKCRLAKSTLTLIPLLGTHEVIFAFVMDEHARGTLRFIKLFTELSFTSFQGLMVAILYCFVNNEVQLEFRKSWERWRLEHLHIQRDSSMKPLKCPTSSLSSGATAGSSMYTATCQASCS

B1: Example 958 (peptide)
chain: YXQGTFTSDXSXXLDKKAQXAFIEXLIEGGPSSGAPPPSGSEE
modifications: Aib, 4Pal, Orn, αMeL, Me4Pal, acylated K, C-terminal amide; synthetic construct; SITE 2: note = 2-Aminoisobutyric Acid; SITE 10: note = 3-(4-Pyridyl)-L-alanine; SITE 12: note = L-ornithine; SITE 13: note = alpha-methyl-leucine; SITE 17: note = Lysine is chemically modified through conjugation of the epsilon-amino group of the Lysine side chain with (gamma-Gl)
For the molecule B1, the cAMP Rel EC50, nM (1% HSA) worked out at 27.1 nM in test [1], 850 nM in the test with hGLP-1R and 340 nM in test [2].

B2: Example 956 (peptide)
chain: YXQGTFTSDXSRXLDKKAQXAFIEXLIEGGPSSGAPPPSGSEE
modifications: acylated lysine AEEA-γGlu-C18 diacid; non-natural residues; C-terminal amide; synthetic construct; SITE 2: note = 2-Aminoisobutyric Acid; SITE 10: note = 3-(4-Pyridyl)-L-alanine; SITE 13: note = alpha-methyl-leucine; SITE 17: note = Lysine is chemically modified through conjugation of the epsilon-amino group of the Lysine side chain with (2-[2-(2-Amino-ethoxy)-ethoxy]-acetyl)
As to B2, the cAMP Rel EC50, nM (1% HSA) stood at 32.1 nM in test [1], 643 nM with hGLP-1R and 406 nM in test [2].

B3: Example 957 (peptide)
chain: YXQGTFTSDXSQXLDKKAQXAFIEXLIEGGPSSGAPPPSGSEE
modifications: non-natural residues; Lys acylated C18 diacid; C-terminal amide; synthetic construct; SITE 2: note = 2-Aminoisobutyric Acid; SITE 10: note = 3-(4-Pyridyl)-L-alanine; SITE 13: note = alpha-methyl-leucine; SITE 17: note = Lysine is chemically modified through conjugation of the epsilon-amino group of the Lysine side chain with (gamma-Glu)2-CO-(CH2)16-CO2H; SITE 20:
With B3, the cAMP Rel EC50, nM (1% HSA) stood at 25 nM in test [1], 747 nM with hGLP-1R and 947 nM in test [2].

B4: Example 971 (peptide)
chain: YXQGTFTSDXSQXLDKKAQXAFIEYLIAGGPSSGEPPPSGSGE
modifications: synthetic construct; SITE 2: note = 2-Aminoisobutyric Acid; SITE 10: note = 3-(4-Pyridyl)-L-alanine; SITE 13: note = alpha-methyl-leucine; SITE 17: note = Lysine is chemically modified through conjugation of the epsilon-amino group of the Lysine side chain with (gamma-Glu)2-CO-(CH2)16-CO2H; SITE 20:
As to B4, the Relative cAMP EC50 in test [1] was 0.298 nM; with hGLP-1R, 3.46 nM; in test [2], 8.26 nM. In addition, the cAMP Rel EC50, nM (1% HSA) in test [1] was determined as 30.2 nM; with hGLP-1R, 294 nM; in test [2], 1340 nM.

B5: Example 934 (peptide)
chain: YXQGTFTSDXSQXLDKKAQXQFIEXLIEGGPSSGAPPPSGS
modifications: non-natural residues, acylated Lys ((γGlu)2-C18 diacid), C-terminal amide; synthetic construct; SITE 2: note = 2-Aminoisobutyric Acid; SITE 10: note = 3-(4-Pyridyl)-L-alanine; SITE 13: note = alpha-methyl-leucine; SITE 17: note = Lysine is chemically modified through conjugation of the epsilon-amino group of the Lysine side chain with (gamma-Glu)2-CO-(CH2)16-CO2H; SITE 20:
Consider B5, for which the cAMP Rel EC50 (1% HSA) in test [1] turned out to be 28.1 nM; in the test with hGLP-1R, 175 nM; in test [2], 1380 nM.

B6: Example 952 (peptide)
chain: YXQGTFTSDXSXXLDKKAQXAFIEXLIEGGPSSGAPPPSGS
modifications: acylated Lys, C-terminal amide, non-natural residues; synthetic construct; SITE 2: note = 2-Aminoisobutyric Acid; SITE 10: note = 3-(4-Pyridyl)-L-alanine; SITE 12: note = L-ornithine; SITE 13: note = alpha-methyl-leucine; SITE 17: note = Lysine is chemically modified through conjugation of the epsilon-amino group of the Lysine side chain with (gamma-Gl)
On to B6, for which the cAMP Rel EC50, nM (1% HSA) worked out at 16.6 nM in test [1], 439 nM in the test with hGLP-1R and 266 nM in test [2].

B7: Example 949 (peptide)
chain: YXQGTFTSDXSXXLDKKAQXAFIEXLIEGGPSSGAPPPSGS
modifications: Aib, 4Pal, Orn, Me4Pal; acylated lysine; amide; synthetic construct; SITE 2: note = 2-Aminoisobutyric Acid; SITE 10: note = 3-(4-Pyridyl)-L-alanine; SITE 12: note = L-ornithine; SITE 13: note = alpha-methyl-leucine; SITE 17: note = Lysine is chemically modified through conjugation of the epsilon-amino group of the Lysine side chain with (2-[2-(2-
For the molecule B7, the cAMP Rel EC50, nM (1% HSA) in test [1] turned out to be 26 nM; in the test with hGLP-1R, 721 nM; in test [2] it was 317 nM.

B8: Example 950 (peptide)
chain: YXQGTFTSDXSRXLDKKAQXAFIEXLIEGGPSSGAPPPSGS
modifications: non-natural residues, AEEA-γGlu-C18 diacid lysine acylation, C-terminal amide; synthetic construct; SITE 2: note = 2-Aminoisobutyric Acid; SITE 10: note = 3-(4-Pyridyl)-L-alanine; SITE 13: note = alpha-methyl-leucine; SITE 17: note = Lysine is chemically modified through conjugation of the epsilon-amino group of the Lysine side chain with (2-[2-(2-Amino-ethoxy)-ethoxy]-acetyl)
On to B8, for which the cAMP Rel EC50, nM (1% HSA) came to 18.1 nM in test [1], 328 nM with hGLP-1R and 327 nM in test [2].

B9: Example 968 (peptide)
chain: YXQGTFTSDXSQXLDKKAQXAFIEYLIAGGPSSGEPPPSGS
modifications: synthetic construct; SITE 2: note = 2-Aminoisobutyric Acid; SITE 10: note = 3-(4-Pyridyl)-L-alanine; SITE 13: note = alpha-methyl-leucine; SITE 17: note = Lysine is chemically modified through conjugation of the epsilon-amino group of the Lysine side chain with (gamma-Glu)2-CO-(CH2)16-CO2H; SITE 20:
B9: the Relative cAMP EC50 was 0.0928 nM in test [1], 1.04 nM with hGLP-1R and 4.72 nM in test [2]. The results for the cAMP Rel EC50, nM (1% HSA) (in test [1]; with hGLP-1R; in test [2]) were 11.7 nM, 103 nM and 625 nM, respectively.

B10: Example 969 (peptide)
chain: YXQGTFTSDXSQXLDKKAQXAFIEYLIAGGPSSGAPPPEGS
modifications: synthetic construct; SITE 2: note = 2-Aminoisobutyric Acid; SITE 10: note = 3-(4-Pyridyl)-L-alanine; SITE 13: note = alpha-methyl-leucine; SITE 17: note = Lysine is chemically modified through conjugation of the epsilon-amino group of the Lysine side chain with (gamma-Glu)2-CO-(CH2)16-CO2H; SITE 20:
For B10, the figures for the Relative cAMP EC50 (in test [1]; with hGLP-1R; in test [2]) were 0.142 nM, 1.21 nM and 5.48 nM, respectively. In addition, the cAMP Rel EC50, nM (1% HSA) was found to be 12.6 nM in test [1], 113 nM with hGLP-1R and 660 nM in test [2].

B11: Example 951 (peptide)
chain: YXQGTFTSDXSQXLDKKAQXAFIEXLIEGGPSSGAPPPSGS
modifications: Aib, 4Pal, Me4Pal, αMeL; lipidated Lys; C-terminal amide; synthetic construct; SITE 2: note = 2-Aminoisobutyric Acid; SITE 10: note = 3-(4-Pyridyl)-L-alanine; SITE 13: note = alpha-methyl-leucine; SITE 17: note = Lysine is chemically modified through conjugation of the epsilon-amino group of the Lysine side chain with (gamma-Glu)2-CO-(CH2)16-CO2H; SITE 20:
For the molecule B11, the cAMP Rel EC50, nM (1% HSA) in test [1] amounted to 18.2 nM; with hGLP-1R, 382 nM; in test [2] it was 657 nM.

B12: Example 953 (peptide)
chain: YXQGTFTSDXSRXLDKKAQXAFIEXLIEGGPSSGAPPPSGS
modifications: Aib, 4Pal, αMeL, Me4Pal; lipidated Lys; C-terminal amide; synthetic construct; SITE 2: note = 2-Aminoisobutyric Acid; SITE 10: note = 3-(4-Pyridyl)-L-alanine; SITE 13: note = alpha-methyl-leucine; SITE 17: note = Lysine is chemically modified through conjugation of the epsilon-amino group of the Lysine side chain with (gamma-Glu)2-CO-(CH2)16-CO2H; SITE 20:
For B12, the cAMP Rel EC50, nM (1% HSA) was 10.9 nM in test [1], 347 nM with hGLP-1R and 275 nM in test [2].

B13: Example 948 (peptide)
chain: YXQGTFTSDXSQXLDKKAQXAFIEXLIEGGPSSGAPPPSGS
modifications: Aib, 4Pal, Me4Pal, alpha-methyl-Leu, lipidated Lys, amide; synthetic construct; SITE 2: note = 2-Aminoisobutyric Acid; SITE 10: note = 3-(4-Pyridyl)-L-alanine; SITE 13: note = alpha-methyl-leucine; SITE 17: note = Lysine is chemically modified through conjugation of the epsilon-amino group of the Lysine side chain with (2-[2-(2-Amino-ethoxy)-ethoxy]-acetyl)
For the molecule B13, the cAMP Rel EC50 (1% HSA) came out at 22.9 nM in test [1], 304 nM in the test with hGLP-1R and 537 nM in test [2].

B14: Example 966 (peptide)
chain: YXQGTFTSDXSXXLDKKAQXAFIEXLIEGGPSSGAPPPSGSE
modifications: acylated Lys (γGlu)2-C18 diacid; non-natural residues; C-terminal amide; synthetic construct; SITE 2: note = 2-Aminoisobutyric Acid; SITE 10: note = 3-(4-Pyridyl)-L-alanine; SITE 12: note = L-ornithine; SITE 13: note = alpha-methyl-leucine; SITE 17: note = Lysine is chemically modified through conjugation of the epsilon-amino group of the Lysine side chain with (gamma-Gl)
As to B14, the cAMP Rel EC50, nM (1% HSA) in test [1] is 35.9 nM; in the test with hGLP-1R, 257 nM; in test [2], 581 nM.

These data come from patent US20240270821A1, “GIP/GLP1/GCG TRI-RECEPTOR AGONISTS AND USES THEREOF” (priority 2023, published 2024).
